Laboratory results: patent US20100323906

Test system: XhoI
Test: cleavage_in_vitro
Settings: 5'-dithiol on upper strand, tethered to 20 nm Au nanoparticle; rate constant at 3.5 nM enzyme (1.5e-3 s-1 at 350 pM); Mg2+ required, inhibited by 10 mM EDTA

## AAAGGATCCAAGCTTGAATTCCTCGAGAGATCTGTCGACGATATCGGTACCAAA (double strand) [54-bp ruler dsDNA]
  activity: 0.0058 s⁻¹
